# Measured values reported in publication PMC6344876.
# Tests used:
# [1] = system: eIF2 heterotrimer with eIF2γ-I318M (His-tagged) (Saccharomyces cerevisiae); test: filter binding; details: aminoacylated with Met; Filter binding: 25 mM HEPES-KOH pH 7.6, 2.5 mM Mg(OAc)2, 80 mM KOAc, 2 mM DTT, 0.5 mM GDPNP-Mg2+, 1 nM tRNA, 3.125-200 nM eIF2, 26 C; pull-down: 20 mM Tris-HCl …
# [2] = system: eIF2 heterotrimer (WT eIF2γ, His-tagged) (Saccharomyces cerevisiae); test: filter binding; details: aminoacylated with Met; Filter binding: 25 mM HEPES-KOH pH 7.6, 2.5 mM Mg(OAc)2, 80 mM KOAc, 2 mM DTT, 0.5 mM GDPNP-Mg2+, 1 nM tRNA, 3.125-200 nM eIF2, 26 C; pull-down: 20 mM Tris-HCl …
substance,measurement,setting,value
[35S]Met-tRNAiMet (in vitro transcribed),Kd,[1],98 nM
same,Kd,[2],18 nM
